Laboratory results taken from article PMC8086355, “The unusual structure of the PiggyMac cysteine-rich domain reveals zinc finger diversity in PiggyBac-related transposases”.
Values belong to the molecule of their own block, whether it stands above or below them.

Columns and labels:
[1] = target: Pgm(692–768)* (Paramecium tetraurelia); experiment: NMR titration; 100 μM 15N-Pgm(692–768)* titrated with 50 to 1000 μM H3(1–19), 1H-15N HSQC at 800 MHz, 5 mM HEPES pH 6.8, 25 mM NaCl, 20 °C; apparent KD from the chemical shift perturbations of E739, assuming 1:1 binding; 1H-1H TOCSY on the final titration point
[2] = target: H3(1–19)K4me3-b (Paramecium tetraurelia); experiment: ELISA; C-terminally biotinylated peptides (4 μM) on streptavidin-coated plates; purified MBP or MBP-CRD fusions (10 to ~100 nM) in buffer C (25 mM Tris pH 7.4, 150 mM NaCl, 0.1% BSA, 0.05% Tween 20), 4 °C overnight; anti-MBP-HRP, absorbance at 450 nm
MBP-Pgm = target: T1, MBP-Pgm (Paramecium tetraurelia, UniProt A0DFJ7 1-1065); experiment: DRaCALA; 400 nM protein; DRaCALA: 25 mM HEPES pH 7.5, 0.1 mg/ml BSA, 0.5 mM DTT, 100 mM NaCl, 25 nM DNA, no competitor, temperature not stated; EMSA: as in earlier paper, 5% acrylamide; details: protein: recombinant; tags: N-terminal MBP; label: 32P at 5' end of top strand
T1 sequence: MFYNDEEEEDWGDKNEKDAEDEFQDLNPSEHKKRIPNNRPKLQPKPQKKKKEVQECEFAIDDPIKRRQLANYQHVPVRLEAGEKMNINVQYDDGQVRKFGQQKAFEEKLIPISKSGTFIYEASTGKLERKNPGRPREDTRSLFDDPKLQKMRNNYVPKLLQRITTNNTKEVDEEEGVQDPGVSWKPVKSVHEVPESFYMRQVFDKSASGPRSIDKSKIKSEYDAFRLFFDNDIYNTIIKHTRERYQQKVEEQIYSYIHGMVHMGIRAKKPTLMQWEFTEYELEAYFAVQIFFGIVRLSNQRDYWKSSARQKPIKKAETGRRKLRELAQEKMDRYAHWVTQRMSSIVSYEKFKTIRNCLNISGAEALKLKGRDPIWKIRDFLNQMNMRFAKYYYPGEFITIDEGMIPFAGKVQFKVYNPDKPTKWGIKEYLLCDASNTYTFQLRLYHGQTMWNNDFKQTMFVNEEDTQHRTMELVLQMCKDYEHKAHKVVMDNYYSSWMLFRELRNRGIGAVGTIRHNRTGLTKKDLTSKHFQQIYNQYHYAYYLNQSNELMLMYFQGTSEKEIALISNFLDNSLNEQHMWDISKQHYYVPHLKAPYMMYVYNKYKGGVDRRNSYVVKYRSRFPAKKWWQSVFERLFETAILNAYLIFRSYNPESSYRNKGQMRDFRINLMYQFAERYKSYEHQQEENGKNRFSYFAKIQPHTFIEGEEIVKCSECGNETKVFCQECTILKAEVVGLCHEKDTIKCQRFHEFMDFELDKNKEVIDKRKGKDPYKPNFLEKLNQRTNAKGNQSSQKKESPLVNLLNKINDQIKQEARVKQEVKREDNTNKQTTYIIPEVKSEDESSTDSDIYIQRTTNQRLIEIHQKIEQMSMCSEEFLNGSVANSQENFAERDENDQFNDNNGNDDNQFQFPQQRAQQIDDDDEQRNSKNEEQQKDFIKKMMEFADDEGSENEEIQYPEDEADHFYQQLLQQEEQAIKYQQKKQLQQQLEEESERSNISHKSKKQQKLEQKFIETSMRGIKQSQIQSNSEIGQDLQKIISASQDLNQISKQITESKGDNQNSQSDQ

GST-Pgm(692-768) CRD [3] = target: T2, GST-Pgm(692-768) CRD (Paramecium tetraurelia, UniProt A0DFJ7 692-768); experiment: DRaCALA; no competitor DNA; DRaCALA: 25 mM HEPES pH 7.5, 0.1 mg/ml BSA, 0.5 mM DTT, 100 mM NaCl, 25 nM DNA, no competitor, temperature not stated; EMSA: as in earlier paper, 5% acrylamide; details: protein: recombinant; tags: N-terminal GST; label: 32P at 5' end of top strand
T2 sequence: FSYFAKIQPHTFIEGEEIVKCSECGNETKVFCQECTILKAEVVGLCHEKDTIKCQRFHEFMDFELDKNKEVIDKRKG

Pgm(692-768)* CRD = target: T3, Pgm(692-768)* CRD (Paramecium tetraurelia, UniProt A0DFJ7 692-768); experiment: NMR (1H-1H NOESY); equimolar DNA; 2 Zn2+ in protein; DRaCALA: 25 mM HEPES pH 7.5, 0.1 mg/ml BSA, 0.5 mM DTT, 100 mM NaCl, 25 nM DNA, no competitor, temperature not stated; EMSA: as in earlier paper, 5% acrylamide; details: protein: recombinant; tags: GST cleaved by PreScission; seven linker residues left at N-terminus; blunt
T3 sequence: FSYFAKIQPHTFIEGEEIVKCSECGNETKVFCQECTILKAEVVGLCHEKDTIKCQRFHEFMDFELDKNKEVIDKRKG

GST-Pgm(692-768) CRD [4] = target: T2, GST-Pgm(692-768) CRD; experiment: EMSA; DRaCALA: 25 mM HEPES pH 7.5, 0.1 mg/ml BSA, 0.5 mM DTT, 100 mM NaCl, 25 nM DNA, no competitor, temperature not stated; EMSA: as in earlier paper, 5% acrylamide; details: protein: recombinant; tags: N-terminal GST; label: 32P

- Kd [1]: 289 µM
Molecule: H3(1–19) (peptide)

- reduction of the ELISA interaction signal relative to unmodified H3(1–19) [2]: 30%
Molecule: MBP-Pgm(692–768) (domain or fragment)

B1: IES 51A1835 80-bp substrate (dsDNA)
DNA 1: ACTACTACATAATGCTAAACTCATTTATAGATGGATTGTTTTCCAAGTATCTATATCATCATGTGTTGCTAATAACCCTG
DNA 2: ATCGCAGGGTTATTAGCAACACATGATGATATAGATACTTGGAAAACAATCCATCTATAAATGAGTTTAGCATTATGTAGT
- binding result (MBP-Pgm): binds
- binding result (GST-Pgm(692-768) CRD [3]): no binding

B2: i1835 (NMR) (dsDNA)
DNA 1: CTACTACATAATGCTAAACTCATTTATAGATGGATTGTTTTCCAAGTATCTATATC
DNA 2: GATATAGATACTTGGAAAACAATCCATCTATAAATGAGTTTAGCATTATGTAGTAG
- binding result (Pgm(692-768)* CRD): no binding

B3: IES 51A4404 left end 70-bp substrate (dsDNA)
DNA 1: CTAGCTTACAACGCAGCTTGCACATCTCTAGTTGATGGTATTGTGGTGTTATTTTAAAAAGTAATATATT
DNA 2: CGATAATATATTACTTTTTAAAATAACACCACAATACCATCAACTAGAGATGTGCAAGCTGCGTTGTAAG
- binding result (GST-Pgm(692-768) CRD [4]): no binding

B4: i4404 (NMR) (dsDNA)
DNA 1: GCTTGCACATCTCTAGTTGATGG
DNA 2: CCATCAACTAGAGATGTGCAAGC
- binding result (Pgm(692-768)* CRD): no binding
